According to the nanobody polyreactivity screen of Harvey et al. (2022):

Experiment: yeast display, Sf9 membrane polyspecificity reagent, FACS + sequencing; frameworks hold sequencing errors
Procedure, shortened: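 Using colony PCR, genes from sorted yeast display clones were amplified, then sequenced on MiSeq at 2 × 250 and filtered by CDR length. The clones had been stained with 10% biotinylated, detergent-solubilized Sf9 membrane reagent for 1 hour at 4 °C and sorted by FACS into low and high (top ~1%) gates on anti-HA and streptavidin fluorescence. Polyreactivity labels come from the gate of origin.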

| Sequence | polyreactivity (PSR sort gate) |
| --- | --- |
| QVQLVESVGALVQARGSLRLSCAASGFTFRPYAMGWYRQAPGKERELVAAITRSGGSTYYADSVKGRFTISRDTAKNTVYLQMNSLKPEDTAVYYCAARFARSEYDYWGQGTQVTVSS | high polyreactivity |
| QFQLVESGGGLVQAGGSLRLSCAASGITIRWYAMGWYRQAPGKERELVAGISSRGDSTYYADSVKGRFTISRDNAKNTVYLQMNSLKREDTAVYYCAAPGSSYRGRGYDYWGQGTQVTVSS | high polyreactivity |
| QVQLVESGGGLVQAGGSLRLSCAASGRIFDQNAMGWYRQAPGKDRELVAAISSSGGRTYYADSVKGRFTISRDNAKNPVYLQMNSLKPEDTAVYYCNKDRTVTTYEYWGQGTQVTVSS | high polyreactivity |
| QVQLVESGGGLVQAGGSLRLSCAASGFISKYYAMVWYRQAPGKERELVAAITRSGTSTYYADSVKGRFTISRDNAKNTVYLQMNSLTPEDTAVYYCAAVSGGRTPRYYYWGQGTQVTVSS | high polyreactivity |
| QVQLVESGGGLVQAGGSLRLSCAASGSTFYRNALGWYRQAPGKERELVARIYRSGSSTSYADSVKGRFTISRDYSKNTVYLQMNSLKPVDTAVYYCATVFVRYEMYWGQGTQLTVSS | high polyreactivity |
| QVQLVESGGGLVQAGGSLRLSCAASGSIFREYAMGWYRQAPGKERELVAAITKSGGRTYYADSVKGRFTISRDNAKNTVYLQMNSLKPEDTAVYYCAADSRNSRQHTSYNRLNYWGQGTQVTVSS | high polyreactivity |
| QVQLVESGGGLVQAGGSLRLSCAASGITFYRYAMGWYRQAPGKERALVAAISWRSGSTNYADSVKGRFTISRDNAKNTVYLQMNSLKPADTAVYYCAARVADYPLFGGSSYNRMEYWGQGTQVTVTS | low polyreactivity |
| QVQLVETGGGLVQAGGSLRLSCAPSGFTFRRNAMGWYRQAPGKERELVAVITSSARTNYADSVKGRFTISRDNAKNTVYLQMNSLKPEDTAVYYCAARYHYGVWRERHGYWGQGTQVTVSS | high polyreactivity |
| QVQLVESGGGLVQAGGSLRLSCAASGSTFTAYTMGWYRQAPGKERELVAAISKIGTRTYYADSVKGRFTISRDNAKNTVYLQMNSLKPEDTAVYYCATGRSRVYNGRGDYWGQGTQVTVSS | high polyreactivity |
| QVQLVESGGGLVQAGGSLRLSCAASGSTYSTNAMGWYRQAPGKERELVAAISRSGGSTYYADTVKRRFTISRDNAKITVYLQMNRLKPEDTAVYYCARYSFRGTNVRYDYWGQGTQVTVSS | high polyreactivity |
| QVQLVESGGGLVQAGGSLRLSCAASGRIFQANAKGWYRQAPGKERELVAAINSGDSTYYADSVKGRFTISRDNAKNTVYLQMNSLKPEDTAVYYCAADAVFQYYTYYYWGQGTQVTVSS | low polyreactivity |
| QVQLVESGGGLVQAGGSLRLSCAASGSTFYRNAMGWYRQAPGKERELVAGISYGGGSTYYADSVKGRFTISRDNAKNTVYLQMNSLKPEDTAVYYCNAVWVKRHYYYWGQGTQVTVSS | low polyreactivity |
| QVQLVESGGGLVQAGGSLRLSCAASGIIYTYYAMGWYRQAPGKERELVARISSSGGRTYYADSVKGRFTISRDNAKNTVYLQMNSLKPEDTAVYYCAAAIVSYGRNDYWGQGTQVTVSS | high polyreactivity |
| QVQLVESGGGLVQAGGSLRLSCAASGINFAAYVMGWYRQAPGKERELFAAISKSGGRTYYADSVKGRFTISRDNAKNTVYLQMNSLKPEDTAVYYCAASYTYFSFGIGTDVRYGYWGQGTQVTVSS | high polyreactivity |
| QVQLVESGGGLVQAGGSLRLSCAASGSIFPYYTMGWYRQAPGKERELVAAISGSGTSTYYADSVKGRFTISRDNAKNTVYLQMISLKPEDTAVYYCAKRFRYGYVNYYYWGQGTQVTVSS | low polyreactivity |
| QVQLVESGGGLVQAGGSLRLSCAASGRILDYYAMGWYRQAPGKERELVAAIRRRGVITYADSVKGRFTISRDNAKNTVYLQMNSLKPEDTAVYYCAAGGYEYGYWGQGTQVTVSS | low polyreactivity |
| QVQLVESGGGLVHAGGSLRLSCAASGRIFVGYTMGGYRQGPGKERELVAAISWDGDITYYADSVKGRFTISRDKAKNTVYLQMNSLKPEDTAVYYCAVDLPVSESHHTLTFELDYWGQGSQVTVSS | low polyreactivity |
| QVQLVESGGGLVQAGGSLRLSCAASGSISPQNVMGWYRQAPGKERELVAAITGGGYTNYADSVKGRFTISRDNAKKTVYLQMNSLKPEDTAVYYCNADYFQDRLDYWGQGTQVTVSS | low polyreactivity |
| QVQLVESGGGLVQAGGSLRLSCAASGRTFSYNTMGWYRQAPGTERELVARITWGGGSTNYADSVKGRFTISRDNAKNTFYLQMNSLKPEDTAVYYCAAGPSVPYGPQKVDYWGQGTQVTVSS | low polyreactivity |
| QVQLVESGGGLVQAGGSLRLSCAASGSIFGHYAMGWYRQATGKERELVATISRRGGSTYYADSVKVRFTISRDNAKNTVYLQMNSLKPEDTAVYYCAADSKGSLYGYWGQGTQVTVSS | high polyreactivity |
| QVQLVESGGGLVQAGGSLRLSCAPSGSTFGSNAMGWYRQAPGKERELVAAINSGDSTSYADSVKGRFTISRDNAKNTVYLQMNSLKPEDTAGYYCATRSYTFVWRHDYWGQGTQVTVSS | low polyreactivity |
| QVQLVESGGGVVQSGGSLRLSCAASGRTFNHYAMGWYRQAPGKERELVAGITISGGSTYYADSVKGRFTISRDNAKNTVYLQMNSLKPEDTAVYYCNAVYDYYRQSKWTMDYWGQGTQVTVSS | low polyreactivity |

| Sequence | polyreactivity (PSR sort gate) |
| --- | --- |
| QVQLVESGGGLVQAGGSLRLSCAASGSTFDYYAMGWYRQAPGKERELVAAISSGGSTNYADSVKGRFTISRDNAKNTVYLQMNSLKPEDTAVYYCAAVALWDYKFFYYLLYDYWGQGTQVTVSS | low polyreactivity |
| QVQLVESGGGLVQAGVSLRLSCAASGRTFRHNVMGRYRQAPGKERELVAAISYSGGSTHYADSVKGRFTISRDNAKNTVYLQMNSQKPEDTAVYYCNRYSYDSHFLYPFRGHDYWGQGTQVTVSS | low polyreactivity |
| QVQLVESGGGLVQAGGSLRLSCAASGGILRQNTMGWYRQAPGKERELVAAISSSGGRTYYADSVKGRFTISRDNAKNTVYLQMNSLKPEDTAVYYCAAEVRLKYRGWTGDYWGQGTQVTVSS | high polyreactivity |
| QVQLVESGGGLVQAGGSLRLSCAASGFTFYWYAMGWYRQAPGKEREFVAAIDQSGGSTYYADSVKGRFTISRDNAKNTVYLQMNSLKPEDTAVYYCAKLYTIGYDYWGQGTQVTVSS | low polyreactivity |
| QVQLVDSGGGLLQAGGSLRLSFAASGRTLNHYVMGWYRQAPGKERELVAAISSGGSTYYADSVKGRFTISRDNAKNTVYLQMNSLKPEDTAVYYCNAGVVGDYPYWGLMDYWGQGTKVTVSS | high polyreactivity |
| QVQLVESGGGLVQAGGSLRLSCAASGFTFISNAMGWYRQAPGKERELVAAISSSGGRTYYADSVKGRFTISRDNAKNTVYLQMNRLKPEDTAVYYCNAVRSLLYSRKIEYDYWGQGTQVTVSS | low polyreactivity |
| QVQLVESGGGLVQAGGSLRLSCAASGRIFRYNAMGWYRQAPGKERELVAAISSVGSTNYADSVKGRFTISRDNAKNTVYLQMNSLKPEDTAVYYCNAVVRSYVKTYRYYKVDYWGQGTQVTVSS | high polyreactivity |
| QVQLVESGGGLVQAGGSLRLSCAASGLIFTRNFMGWYRQAPGKERELVAAITSGGSTYYADSVKRRFTISRDNAKNTVYLQMNSLNPEDTADYYCAAGCDYLLSTVRFDYWGQGTQVTVSS | high polyreactivity |
| QVQLVESGGGLVQAGGSLRLSCAASGITFSGYAMGWYRQAPGKERDFVAGISYSGGSTYYADSVKGRFTISRDNAKNTVYLQMNSLKPEDTAVYYCAAYFGHYWRYYYWGQGTQVTVSS | high polyreactivity |
| QVQLVESGGGLVQAGGSLRLICAASGRTFLPNAMGWYRQAPGKERELVAVITSAGSTYYADSVKGRFTISRDNAKNTVYLQRNSLKPEDTAVYYCSADYLDYDLGDPPPRYYYWGQGTQVTVSS | low polyreactivity |
| QVQLVESGGGLVQAGGSLRLSCAASGSIFCSYAMAWYRQAPGKERELVASITRSGGSTYYADSVKGRFTISRDNAKNTVYLQMNSLKPEDTAVYYCNARRTTRWGSSKYEYDYWGQGTQVTVSS | high polyreactivity |
| QDQLVESGGGLVQAGGSLRLSCAASGITFWYYAMGWYRQAPGKERELVAAITRSGRTNYADSVKGRFTISRDYAKNTVYLQMNILKPEDTAVYYCAVDLYSFSPRYYYWGQGTQVTVSS | low polyreactivity |
| QVQLVESGGGLVQAGGSLRLSCAASGSTFRGYAMGWYRQAPGKEREFVAAISRRGGTTYYADSVKGRFTISRDNAKNTVYLQMNSLKPEDTAVYYCNKVYYQHYLAFDYWGQGTQVTVSS | high polyreactivity |
| QVQLVESGGGLVQAGGSLRLSCAASGSIFTKYAMGWYRQAPGKERELVAAINARGGSTYYADSVKGRFTISRDNAKNTVYLQMNSLKPEDTAVYYCAARYGVGRADYYWGQGTQVTVSS | high polyreactivity |
| QVQLVESGGGLVQAGGSLRLSCAASGLILPYYAMGWYRQAPGKERELVAAISRTGGRTSYADSVKGRFTISRDNAKNTVYLQMNSLKPEDTAVYYCAAVGQSGGRRYDYWGQGTQVTVSS | high polyreactivity |
| QVQLVESGGGLVQAGGSLRLSCAASGSTFVTYAMGWYRQAPGKERELVASISRGGSTKYADSVKGRFTISRDNAKNTVYLQMNSLKPEDTAVYYCAAKAKNYRLGPFDYWGQGTQVTVSS | low polyreactivity |
| QVQLVESGGGIVQAGGSLRLSCAASGSISAYYAMGWYRQAPGNERELVAAISWNGGRTYYADSVKGRFTISRDNAKNSVYLQMNSLKPEDTAVYYCAASPYYVVSTGGYDYDYWGQGTQVTVSS | high polyreactivity |
| QVQLVESGGGLVQAGGSLRLSCAASGITLVRYAMGWYRQAPGKERELVAAISSSGGSTYYADSVKGRFTISRHNAKNTVYLQMNSLKPEDTAVYYCNAYVHSRRVEFNYWGQGTQVTVSS | high polyreactivity |
| QVQLEESGGGLVQAGGSLSLSCAASGSNFVYNAMGWYRQAPGKERELVAVINSGGSTNYADSVKGRFTISRDNAKNTVYIQKNSRKPEDTAVYYCAADRLAVHYYSWYNYWGQGTQVTVSS | low polyreactivity |
| QFQIEESGGGLVQAGGSLRLSCAASGNTFYWNAMGWYRQAPGKDRELVAAISTTGVSTYYADSVKGRFTISRDNAKITVYLQMNSLKPEDTAVYYCAAEIIGYHTIYDYWGQGTQVTVSS | low polyreactivity |
| QVQVVESGGGLVQEGGSLRLSCAASGSTFGINAMGWYRPAPGKEREWVAAITSTGRTYYADSVKGRFTNSRDNAKNTVYLQMNSLKPEDTAVYYCAAVWRYKGLLLPSYYYWGQGTQVTVSS | high polyreactivity |
